From publication PMC9977783, “Ligand-specific changes in conformational flexibility mediate long-range allostery in the lac repressor” (Nature Communications, 2021)
Changes are numbered by the printed parent chain.

B1: Osyn (perfectly symmetric synthetic operator) (dsDNA)
DNA 1: AGTAGTCTAGAATTGTGAGCGCTCACAATTCTAGAGTAGT
DNA 2: B1 DNA 1 with G2C, G5C, G36C, G39C
B2: dimeric LacI (lac repressor, residues 1-331, without the tetramerization domain) (domain or fragment, E. coli, UniProt P03023 1-331, looked up)
chain: MKPVTLYDVAEYAGVSYQTVSRVVNQASHVSAKTREKVEAAMAELNYIPNRVAQQLAGKQSLLIGVATSSLALHAPSQIVAAIKSRADQLGASVVVSMVERSGVEACKAAVHNLLAQRVSGLIINYPLDDQDAIAVEAACTNVPALFLDVSDQTPINSIIFSHEDGTRLGVEHLVALGHQQIALLAGPLSSVSARLRLAGWHKYLTRNQIQPIAEREGDWSAMSGFQQTMQMLNEGIVPTAMLVANDQMALGAMRAITESGLRVGADISVVGYDDTEDSSCYIPPLTTIKQDFRLLGQTSVDRLLQLSQGQAVKGNQLLPVSLVKRKTTLA
notes: E. coli lac repressor (LacI), residues 1-331, tetramerization domain truncated; vector pET9a-6×His-LacI(1-331); His tag removed with TEV protease; also called LacI(1-331); apo-LacI; source: E. coli BL21(AI) ΔlacI-ZYA, purified (Ni-NTA, TEV cleavage, second Ni-NTA flowthrough)
B3: Olac (LacO1 natural operator, BLI) (dsDNA)
DNA 1: AGTAGTGGAATTGTGAGCGGATAACAATTGACATTGTGAGCGGATAACAAGATACTGAGCACATCAGC
DNA 2: GCTGATGTGCTCAGTATCTTGTTATCCGCTCACAATGTCAATTGTTATCCGCTCACAATTCCACTACT

Experiments:
[1] = molecular target: LacI (Escherichia coli) (UniProt P03023); settings: cited from earlier work
[2] = molecular target: LacI dimeric (lac repressor, tetramerization domain removed) (Escherichia coli, UniProt P03023 1-331); assay: BLI; no IPTG; BLI: PBS with 0.2% BSA, 0.05% Tween-20, pH 8.0, room temperature, LacI 0-40 nM, global 1:1 kinetic fit; HDX/MS: 50 mM MOPS, 200 mM NaCl, 0.5 mM TCEP, pH 7.0, equilibrated at 4 C; settings: protein: recombinant; 6xHis removed with TEV protease; chain copies: 2; label: 5'-biotin on forward strand; blunt
[3] = molecular target: the molecule itself; assay: SEC; purified LacI(1-331) after tag removal, buffer and concentration not given

Molecule | Kd [2] [nM] | further results
LacI (from UniProt P03023) |  | Kd [1]: 80 nM
B1 | 1.1 | 
B2 |  | binding result [3]: binds
B3 | 9.5 | 
